This note sets out measurements from article PMC8203622, “Tight docking of membranes before fusion represents a metastable state with unique properties” (Nature Communications, 2021).

The target of the experiment is T1, syntaxin-1A (183–288) (Rattus norvegicus, UniProt P32851 183-288).
T1 construct: syntaxin-1A, Rattus norvegicus, residues 183-288
Description: assembly of a complex by mixing, isolated by ion exchange chromatography (MonoQ); purified proteins mixed overnight at 4 °C in a buffer containing CHAPS, then MonoQ. The following applies: both partners purified.

T1 sequence (P32851 183-288): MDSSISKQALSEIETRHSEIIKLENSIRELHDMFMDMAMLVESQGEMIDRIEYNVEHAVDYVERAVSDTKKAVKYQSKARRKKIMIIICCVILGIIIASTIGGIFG

B1: synaptobrevin-2 fragment (49–96) (domain or fragment, Rattus norvegicus, UniProt P63045 49-96, looked up)
chain: NVDKVLERDQKLSELDDRADALQAGASQFETSAAKLKRKYWWKNLKMM
notes: synaptobrevin-2, Rattus norvegicus, residues 49-96; also called synaptobrevin fragment 49–96
In the case of B1, the binding result is “binds”.
